The source of these data is patent publication US9127040B2, “Regulation of sodium channels by PLUNC proteins” (The University of North Carolina at Chapel Hill, priority 2011, dated 2015).

Ends that are not written are not given here.

Experiment [1] is described as follows: Urinary Na+ excretion (natriuresis) in anesthetized mice after intravenous infusion. The format is in vivo. The conditions noted are these: 250 nmol/g BW/h intravenous infusion, unconscious mice. On the procedure:
To study the effects of SPLUNC1-derived peptides on the in vivo kidney, mice were anesthetized. After a baseline 45 min control clearance period, S18-type peptide or amiloride were infused intravenously over 30 min and the natriuretic response recorded over the subsequent 2-3 h.
Urinary Na^+ output was measured in unconscious mice (FIG. 32). Amiloride (38 nmol/g BW/h; ▪) and S18 (250 nmol/g BW/h; ▴) were added during the infusion period and urinary Na^+ excretion (UNaV) was measured throughout.

For experiment [2], the target named is T1, neutrophil elastase (Homo sapiens, UniProt P08246).
T1 sequence (P08246 30-267): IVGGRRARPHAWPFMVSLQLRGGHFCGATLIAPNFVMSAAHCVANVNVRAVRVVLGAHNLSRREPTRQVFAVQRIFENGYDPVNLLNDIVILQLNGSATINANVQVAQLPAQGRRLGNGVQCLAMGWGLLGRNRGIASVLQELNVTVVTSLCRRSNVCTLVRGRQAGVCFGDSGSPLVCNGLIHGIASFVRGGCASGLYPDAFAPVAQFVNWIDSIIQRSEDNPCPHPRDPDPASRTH
In words: Cleavage of SPLUNC1 by neutrophil elastase at pH 6 vs 7.4. The following applies: 10 μM SPLUNC1, 100 nM neutrophil elastase. On the procedure:
A, Neutrophil elastase activity is moderately greater at pH 6 than at pH 7.4. B, Coomassie-stained gel showing 10 μM SPLUNC1 exposed to 100 nM Neutrophil elastase at pH 6 and 7.4. The reaction was stopped at timed intervals.
Based on SPLUNC1 but not S18's pH-sensitivity (FIGS. 25B and 25C), we hypothesized that SPLUNC1 undergoes a conformational change, and binds to itself at pH 6. To test this, we exposed SPLUNC1 to neutrophil elastase at pH 6 vs. 7.4 (FIG. 26). […] This is consistent with our hypothesis that less SPLUNC1 is exposed at low pH.

For experiment [3], the target named is T2, CFTR (Homo sapiens, UniProt P13569).
T2 construct: expressed in transfected cells; host or cells: Xenopus oocytes
T2 sequence (P13569 whole entry, species assumed): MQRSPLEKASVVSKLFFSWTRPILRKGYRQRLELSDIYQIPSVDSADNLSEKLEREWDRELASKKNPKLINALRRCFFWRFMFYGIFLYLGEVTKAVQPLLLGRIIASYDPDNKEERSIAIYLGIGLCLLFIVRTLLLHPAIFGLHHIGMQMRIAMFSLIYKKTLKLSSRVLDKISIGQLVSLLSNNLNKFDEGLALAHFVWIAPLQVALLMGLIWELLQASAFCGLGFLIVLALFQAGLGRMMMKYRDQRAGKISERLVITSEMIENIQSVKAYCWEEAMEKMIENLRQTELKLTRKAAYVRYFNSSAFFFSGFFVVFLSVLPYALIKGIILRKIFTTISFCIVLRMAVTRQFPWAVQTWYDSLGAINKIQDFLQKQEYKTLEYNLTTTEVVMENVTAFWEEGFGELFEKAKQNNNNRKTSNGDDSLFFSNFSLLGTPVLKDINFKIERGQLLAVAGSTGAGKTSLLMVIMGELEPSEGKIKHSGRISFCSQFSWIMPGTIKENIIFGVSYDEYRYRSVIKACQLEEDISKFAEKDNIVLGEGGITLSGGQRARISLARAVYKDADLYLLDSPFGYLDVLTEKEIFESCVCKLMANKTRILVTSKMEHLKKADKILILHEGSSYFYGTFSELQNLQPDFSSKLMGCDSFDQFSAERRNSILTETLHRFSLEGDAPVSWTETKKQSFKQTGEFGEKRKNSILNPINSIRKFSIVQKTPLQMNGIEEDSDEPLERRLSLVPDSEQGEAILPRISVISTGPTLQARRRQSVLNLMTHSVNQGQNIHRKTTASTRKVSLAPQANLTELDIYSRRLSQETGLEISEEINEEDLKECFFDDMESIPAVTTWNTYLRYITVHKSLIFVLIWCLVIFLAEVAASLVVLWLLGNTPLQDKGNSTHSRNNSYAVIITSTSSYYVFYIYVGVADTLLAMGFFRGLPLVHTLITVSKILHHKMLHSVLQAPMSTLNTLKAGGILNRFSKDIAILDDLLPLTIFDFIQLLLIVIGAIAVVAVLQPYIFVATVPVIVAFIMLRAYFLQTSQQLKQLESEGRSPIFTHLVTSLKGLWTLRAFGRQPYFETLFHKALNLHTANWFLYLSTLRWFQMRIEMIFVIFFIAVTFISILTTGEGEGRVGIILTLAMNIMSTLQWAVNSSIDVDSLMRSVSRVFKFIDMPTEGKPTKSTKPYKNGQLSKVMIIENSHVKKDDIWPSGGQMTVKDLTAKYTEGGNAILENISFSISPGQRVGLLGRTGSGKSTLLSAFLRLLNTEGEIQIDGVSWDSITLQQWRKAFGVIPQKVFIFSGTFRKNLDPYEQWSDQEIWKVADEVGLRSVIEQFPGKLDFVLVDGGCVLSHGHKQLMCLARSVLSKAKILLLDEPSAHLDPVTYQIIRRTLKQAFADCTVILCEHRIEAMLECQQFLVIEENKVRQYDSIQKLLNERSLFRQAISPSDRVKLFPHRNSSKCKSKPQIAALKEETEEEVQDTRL
In words: CFTR activity in Xenopus oocytes co-expressing β2 adrenergic receptor, isoproterenol stimulated. The format is cell-based. The conditions noted are these: 10 μM isoproterenol.

Experiment [4] addresses T3, ENaC (Homo sapiens, UniProt P37088+P51168+P51170).
T3 construct: measured the transepithelial voltage under thin film conditions in human bronchial epithelial cultures; endogenous in cells; host or cells: primary human bronchial epithelial cultures (normal or CF donors)
T3 sequence (P37088 1-669): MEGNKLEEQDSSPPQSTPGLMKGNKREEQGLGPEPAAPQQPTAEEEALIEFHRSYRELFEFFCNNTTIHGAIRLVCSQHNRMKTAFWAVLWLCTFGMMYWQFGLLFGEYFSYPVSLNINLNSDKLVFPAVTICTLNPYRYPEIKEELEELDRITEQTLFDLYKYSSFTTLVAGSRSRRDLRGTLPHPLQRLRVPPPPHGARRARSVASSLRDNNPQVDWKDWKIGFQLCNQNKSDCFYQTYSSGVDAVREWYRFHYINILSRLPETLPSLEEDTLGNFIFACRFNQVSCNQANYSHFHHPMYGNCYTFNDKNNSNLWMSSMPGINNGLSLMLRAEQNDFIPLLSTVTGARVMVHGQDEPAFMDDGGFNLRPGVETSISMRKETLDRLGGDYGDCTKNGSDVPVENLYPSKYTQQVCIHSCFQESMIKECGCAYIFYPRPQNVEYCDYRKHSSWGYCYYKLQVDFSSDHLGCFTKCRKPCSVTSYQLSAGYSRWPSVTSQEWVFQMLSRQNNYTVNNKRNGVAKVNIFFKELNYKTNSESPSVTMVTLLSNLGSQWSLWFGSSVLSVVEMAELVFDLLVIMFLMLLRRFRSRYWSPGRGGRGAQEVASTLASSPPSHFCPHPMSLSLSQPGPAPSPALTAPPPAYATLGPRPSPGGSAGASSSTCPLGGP
T3 sequence (P51168 1-640): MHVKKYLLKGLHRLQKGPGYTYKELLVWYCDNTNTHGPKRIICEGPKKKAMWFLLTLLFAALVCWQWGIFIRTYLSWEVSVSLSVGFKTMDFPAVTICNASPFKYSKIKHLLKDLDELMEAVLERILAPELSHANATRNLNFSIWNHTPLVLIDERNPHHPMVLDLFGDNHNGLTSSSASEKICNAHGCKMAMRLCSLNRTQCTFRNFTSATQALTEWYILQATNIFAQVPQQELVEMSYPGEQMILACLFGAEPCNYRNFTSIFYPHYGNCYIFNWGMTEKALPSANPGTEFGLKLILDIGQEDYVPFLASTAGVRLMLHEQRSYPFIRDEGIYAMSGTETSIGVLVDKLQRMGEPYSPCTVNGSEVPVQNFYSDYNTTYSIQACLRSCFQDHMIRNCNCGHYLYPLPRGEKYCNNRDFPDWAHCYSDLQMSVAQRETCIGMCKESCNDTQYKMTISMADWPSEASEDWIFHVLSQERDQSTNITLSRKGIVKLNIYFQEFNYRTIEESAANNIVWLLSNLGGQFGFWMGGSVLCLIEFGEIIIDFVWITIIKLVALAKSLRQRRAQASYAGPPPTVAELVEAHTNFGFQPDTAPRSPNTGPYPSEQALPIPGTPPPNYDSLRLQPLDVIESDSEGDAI
T3 sequence (P51170 1-649): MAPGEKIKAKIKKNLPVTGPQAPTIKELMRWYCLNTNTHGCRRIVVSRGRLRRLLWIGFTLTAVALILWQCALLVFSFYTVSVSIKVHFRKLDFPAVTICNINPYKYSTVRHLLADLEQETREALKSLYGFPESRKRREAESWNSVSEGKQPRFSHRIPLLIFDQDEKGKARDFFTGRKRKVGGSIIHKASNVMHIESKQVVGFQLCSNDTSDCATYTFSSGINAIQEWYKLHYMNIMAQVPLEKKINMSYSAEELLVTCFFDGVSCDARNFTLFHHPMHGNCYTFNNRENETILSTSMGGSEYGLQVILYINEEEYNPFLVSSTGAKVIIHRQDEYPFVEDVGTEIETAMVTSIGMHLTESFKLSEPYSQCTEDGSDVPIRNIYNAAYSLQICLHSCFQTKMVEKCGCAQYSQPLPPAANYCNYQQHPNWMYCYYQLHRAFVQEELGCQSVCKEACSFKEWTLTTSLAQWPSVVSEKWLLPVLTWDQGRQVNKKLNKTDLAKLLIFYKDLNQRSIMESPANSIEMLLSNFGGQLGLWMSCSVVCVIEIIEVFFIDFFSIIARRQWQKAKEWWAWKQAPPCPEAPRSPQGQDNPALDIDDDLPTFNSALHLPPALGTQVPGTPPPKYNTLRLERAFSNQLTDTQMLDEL
In words: Transepithelial electrical resistance in human bronchial epithelial cultures. The following applies: 50 ng/ml SPLUNC1 30 min or amiloride 10 min; effects not additive. The format is cell-based. From the text: A single-barreled potential difference-sensing electrode was placed in the airway surface liquid by micromanipulator and used in conjunction with a macroelectrode in the serosal solution to measure transepithelial voltage using a voltmeter (World Precision Instruments). […] Transepithelial resistance was routinely measured using the EVOM system (WPI) as previously described ([…] et al., J. Gen. Physiol. 127:591 (2006)).

Consider GGLPVPLDQTLPLNVNPA [S18], for which, in experiment [1], the “urinary Na+ excretion (UNaV)” value is “induces natriuresis”.

B1: SPLUNC1: human SPLUNC1 (SEQ ID NO:1), 256 amino acid secreted PLUNC family protein; rSPLUNC1 is the purified V5/6His-tagged recombinant form (protein, listed as Homo sapiens)
chain: MFQTGGLIVFYGLLAQTMAQFGGLPVPLDQTLPLNVNPALPLSPTGLAGSLTNALSNGLLSGGLLGILENLPLLDILKPGGGTSGGLLGGLLGKVTSVIPGLNNIIDIKVTDPQLLELGLVQSPDGHRLYVTIPLGIKLQVNTPLVGASLLRLAVKLDITAEILAVRDKQERIHLVLGDCTHSPGSLQISLLDGLGPLPIQGLLDSLTGILNKVLPELVQGNVCPLVNEVLRGLDITLVHDIVNMLIHGLQFVIKV
modifications: V5/6His tag in recombinant form
notes: rSPLUNC1 is the purified V5/6His-tagged recombinant form
In the case of B1, in experiment [2], the “cleavage by neutrophil elastase at pH 6” value is recorded as “resistant to cleavage”. The CFTR activity entry in experiment [3] (5 ng/ml rSPLUNC1 exposure) and in experiment [3] (injection of SPLUNC1 cRNA) was “no inhibitory effect on CFTR activity” in each case. Besides, the “increase of transepithelial electrical resistance” value in experiment [4] is approximately 33%.
